This passage reports Median fluorescence intensity (MFI) and fold less binding (against the anti-5T4 proteins) results from patent US20160304617A1.

The target in assay [1] is Human 5T4 full length (human) (UniProt Q13641). The experiment in a line: flow cytometry on LNCaP cells, 5 µg/ml probe, anti-Fc FITC. Background: A flow cytometer gives signals particle by particle.
The target is the same in assay [2]. Put plainly: flow cytometry on recombinant MDA-MB-231-5T4 FL cells at 5 µg/ml.
Assay [3] shares this target. Put plainly: flow cytometry on HT29 cells, 5 µg/ml probe, anti-Fc FITC.
Assay [4] shares this target. The experiment in a line: flow cytometry on MDAMB361 cells, 5 µg/ml probe, anti-Fc FITC.
The target is the same in assay [5]. The experiment in a line: flow cytometry on DLD1 cells, 5 µg/ml probe, anti-Fc FITC.
Assay [6] shares this target. Put plainly: flow cytometry on A431 cells, 5 µg/ml probe, anti-Fc FITC.
The target is the same in assay [7]. Put plainly: flow cytometry on MBA-MB-231 cells (as the row is labelled), 5 µg/ml probe, anti-Fc FITC.
The target is the same in assay [8]. Put plainly: flow cytometry on BxPC3 cells, 5 µg/ml probe, anti-Fc FITC.
Assay [9] shares this target. The experiment in a line: flow cytometry on PC3 cells, 5 µg/ml probe, anti-Fc FITC.
Assay [10] has the same target. The experiment in a line: flow cytometry on Rec-MDA-MB-231-5T4 cells (as the row is labelled), 5 µg/ml probe, anti-Fc FITC.
The target is the same in assay [11]. Put plainly: flow cytometry on PA1 cells, 5 µg/ml probe, anti-Fc FITC.
For assay [12] the target is unchanged. Put plainly: flow cytometry on SKOV3 cells, 5 µg/ml probe, anti-Fc FITC.

UniProt Q13641, sequence (Q13641 32-420): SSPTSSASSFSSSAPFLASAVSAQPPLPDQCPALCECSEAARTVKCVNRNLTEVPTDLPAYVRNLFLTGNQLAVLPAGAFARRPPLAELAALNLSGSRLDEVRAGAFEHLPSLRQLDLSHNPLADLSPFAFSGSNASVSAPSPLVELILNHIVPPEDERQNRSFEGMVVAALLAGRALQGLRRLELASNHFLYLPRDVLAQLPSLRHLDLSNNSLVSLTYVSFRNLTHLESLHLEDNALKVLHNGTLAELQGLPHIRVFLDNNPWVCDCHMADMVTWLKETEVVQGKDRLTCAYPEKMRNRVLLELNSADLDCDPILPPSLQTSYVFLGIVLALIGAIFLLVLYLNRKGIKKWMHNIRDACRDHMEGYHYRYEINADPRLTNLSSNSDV

For the substance unrelated (control) Fc fusion protein, the Median fluorescence intensity (MFI) in [1] was 23 MFI; in [3], 12 MFI; in [4], 5 MFI; in assay [5] it was 14 MFI; in assay [6] it was 13 MFI; in assay [7], 4 MFI. Also, the Median fluorescence intensity (MFI) in assay [8] stood at 14 MFI; in assay [9], 3 MFI; in assay [10], 8 MFI; in assay [11], 6 MFI; in [12], 6 MFI. Moreover, in assay [2], the fold less binding (against the anti-5T4 proteins) came to 200 fold.
